From PMC3077455
Where two headings read alike, the source gives them in different places.

Experiments:
[1] = target: Cse4 150-229 (sedimentation sample) (budding yeast) (UniProt P36012); assay: AUC
[2] = target: Cse4 150-229 (sedimentation sample) (budding yeast) (UniProt P36012); assay: AUC; remark: listed apart in the source
[3] = target: single chain Cse4-H4 (His6-KK-Cse4_(151–207)-LVPRGS-H4_(45–103)) (budding yeast | not stated) (UniProt P36012); assay: ITC

Chain of Scm3 84-169 (Q12334 84-169): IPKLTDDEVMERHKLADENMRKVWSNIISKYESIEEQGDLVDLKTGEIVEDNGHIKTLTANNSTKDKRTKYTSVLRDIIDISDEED

Row | Substance | stoichiometry N [1] | stoichiometry N [2] | fold reduction of the binding affinity against the wild type [3]
1 | Scm3 84-169 (from UniProt Q12334 84-169) (domain or fragment) | 1 | 1 | 
2 | histone H4, full length (from UniProt P02309 1-103) (natural protein) | 1 | 1 | 
3 | Scm3 Ile110Asp/Ile117Asn (from UniProt Q12334 83-169) (domain or fragment) |  |  | 85 fold
